This note sets out measurements from patent publication US20240279357A1 (THERINI BIO, published 2024).

The test deals with T1, human Fibrin (human fibrinogen clotted on the plate with thrombin and CaCl2) (human, UniProt P02671 36-629; P02675 45-491; P02679 27-437).
T1 construct: Made in the ELISA wells from the human fibrinogen by thrombin and CaCl2, 1 hour at 37 C, then dried
T1 sequence (looked up) 1: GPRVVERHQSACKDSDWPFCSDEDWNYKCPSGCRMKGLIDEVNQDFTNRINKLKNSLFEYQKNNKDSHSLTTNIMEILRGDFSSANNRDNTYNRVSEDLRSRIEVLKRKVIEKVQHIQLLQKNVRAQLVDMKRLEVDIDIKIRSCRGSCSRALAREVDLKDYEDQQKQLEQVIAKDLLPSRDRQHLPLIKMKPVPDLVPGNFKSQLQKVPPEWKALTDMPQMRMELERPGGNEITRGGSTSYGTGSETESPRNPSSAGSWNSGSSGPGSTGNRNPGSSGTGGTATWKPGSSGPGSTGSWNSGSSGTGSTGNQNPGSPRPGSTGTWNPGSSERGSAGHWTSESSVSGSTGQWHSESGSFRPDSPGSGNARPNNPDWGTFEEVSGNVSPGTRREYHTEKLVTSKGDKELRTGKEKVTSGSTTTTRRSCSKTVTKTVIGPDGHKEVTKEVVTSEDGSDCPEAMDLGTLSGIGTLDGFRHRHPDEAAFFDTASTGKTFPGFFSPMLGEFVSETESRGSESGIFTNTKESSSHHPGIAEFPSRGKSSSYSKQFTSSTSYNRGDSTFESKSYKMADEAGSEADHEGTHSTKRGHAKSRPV
T1 sequence (looked up) 2: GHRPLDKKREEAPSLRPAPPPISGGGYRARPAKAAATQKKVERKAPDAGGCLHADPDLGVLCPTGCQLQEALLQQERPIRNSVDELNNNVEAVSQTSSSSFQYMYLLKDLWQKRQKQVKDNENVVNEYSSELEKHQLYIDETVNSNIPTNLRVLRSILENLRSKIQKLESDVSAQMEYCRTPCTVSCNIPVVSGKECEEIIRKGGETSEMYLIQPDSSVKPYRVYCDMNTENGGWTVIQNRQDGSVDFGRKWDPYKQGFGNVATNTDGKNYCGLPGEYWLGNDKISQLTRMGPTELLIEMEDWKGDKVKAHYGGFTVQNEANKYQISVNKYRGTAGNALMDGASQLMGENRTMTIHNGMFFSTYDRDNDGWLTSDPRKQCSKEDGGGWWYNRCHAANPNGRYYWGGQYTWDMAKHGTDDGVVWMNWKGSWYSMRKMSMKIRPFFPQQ
T1 sequence (looked up) 3: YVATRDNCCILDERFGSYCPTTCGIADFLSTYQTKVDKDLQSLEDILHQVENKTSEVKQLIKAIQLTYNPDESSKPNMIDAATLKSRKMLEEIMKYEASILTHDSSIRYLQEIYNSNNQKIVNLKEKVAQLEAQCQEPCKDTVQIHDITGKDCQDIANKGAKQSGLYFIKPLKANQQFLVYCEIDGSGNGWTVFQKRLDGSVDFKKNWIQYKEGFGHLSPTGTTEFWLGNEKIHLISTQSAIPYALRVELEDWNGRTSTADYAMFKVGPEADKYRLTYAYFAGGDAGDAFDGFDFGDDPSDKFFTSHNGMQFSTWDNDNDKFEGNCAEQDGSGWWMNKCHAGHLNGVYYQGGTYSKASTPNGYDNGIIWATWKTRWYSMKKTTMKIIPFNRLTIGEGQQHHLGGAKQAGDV
Briefly: ELISA on human fibrin formed on the plate. As for the experimental part: The humanized antibodies affinity for fibrinogen, fibrin and P2 peptide were assessed by Enzyme-linked immunosorbent assays (ELISA)s (FIGS. 7-16). ELISAs for fibrinogen binding were performed using plasminogen-depleted human Fibrinogen (EMD/Calbiochem). […] IgG1-depleted Fibrinogen (FGN) in 20 mM HEPES/Saline buffer was added to each well of half of a 96-well Nunc Maxisorp™ ELISA plate. The ELISAs for fibrin binding were prepared by adding 50 mL of 20 mM HEPES/Saline buffer containing 14 mM CaCl₂, and 2 units thrombin to each well of the second half of the Nunc Maxisorp™ ELISA plate. 50 mL of 20 mg fibrinogen in 20 mM HEPES/Saline buffer were then added to a total volume of 100 mL. Plates were placed in a 37° C. incubator for 1 hour to allow fibrinogen to clot into fibrin and subsequently placed overnight into a plate dryer at 37° C. overnight. The ELISAs for P2 peptide were prepared by addition of […] of 30 mM P2 peptide in 20 mM HEPES/Saline buffer to each well of a 96-well Nunc Maxisorp™ ELISA plate. Plates were transferred to the plate dryer and dried overnight at 37° C. All ELISAs were preformed using Nunc MaxiSorp 96-well ELISA plates. Blocking was performed using 100 mL 5% BSA in DPBS are incubated at RT for 1 hour. Plates were washed 5× in DPBS containing 0.05% Tween-20 (EL406 was used for the addition of wash buffer only). 50 mL of primary antibodies was diluted in 0.5% BSA in DPBS, and the primary antibodies were added to the plates and incubated for 2 hours at 37° C. Plates were washed 5× in DPBS/Tween. 100 mL secondary antibodies were diluted in 0.5% BSA in DPBS. The secondary antibodies were then added to the plates and incubated for 1 hour at RT. Afterwards, plates were washed 5× in DPBS/Tween. 100 mL of TMB/E substrate solution was added, and the reaction was stopped after 5 minutes with 1N HCl.

Residue numbers refer to the chain shown, from its start.

B1: humanized VH5/Vκ2 antibody (antibody, IgG1, V domains shown)
VH: QVQLVQSGAEVKKPGSSVKVSCKASGYTFTSYWIHWVRQAPGQGLEWIGLIDPSDSYTNYNQKFRGRVTITRDTSTSTAYMELSSLRSEDTAVYYCASSDPTGCWGQGTTVTVSS
VL: DIVMTQAAFSNPVTPGTPASISCRSSKSLLHSSGITYLSWYLQKPGQSPQLLIYQMSNLASGVPDRFSSSGSGTDFTLKISRVEAEDVGVYYCAQNLELPLTFGQGTKLEIK
notes: IgG1; also called VH5/VK2; VH5Vk2
By EC50 is commonly meant the midpoint of the concentration-response curve. A higher EC50 goes with weaker potency. For B1, the concentration giving a half-maximal response (EC50) is about 525 nM.

B2: humanized VH4/Vκ2 antibody (antibody, IgG1, V domains shown)
VH: B1 VH with R72V
VL: B1 VL
notes: IgG1; also called VH4/VK2; VH4Vk2
Regarding B2, the EC50 was about 762 nM.

B3: humanized VH6/Vκ2 antibody (antibody, IgG1, V domains shown)
VH: B1 VH with R65Q
VL: B1 VL
notes: Expressed as IgG1; also called VH6/VK2; VH6Vk2
Molecule B3 came in with an EC50 of about 488 nM.

B4: humanized VH4/Vκ1 antibody (antibody, IgG1, V domains shown)
VH: B1 VH with R72V
VL: B1 VL with V13I, K79R
notes: Expressed as IgG1; also called VH4/VK1; VH4Vk1
B4: the EC50 is about 219 nM.
